Measurements as given in the supplement of paper PMC11246515.
± gives the standard deviation of the averaged measurements.

Assay: total protein half-life in vivo (active degradation + dilution); higher = more stable protein
[1] = E. coli NCM3722 delta-clpP delta-lon delta-hslV, growth: N-lim chemostat, doubling time 6 h
[2] = E. coli NCM3722 delta-clpP, growth: N-lim chemostat, doubling time 6 h
[3] = E. coli NCM3722 delta-hslV, growth: N-lim chemostat, doubling time 6 h
[4] = E. coli NCM3722 delta-lon, growth: N-lim chemostat, doubling time 6 h
[5] = E. coli NCM3722 delta-smpB, growth: N-lim chemostat, doubling time 6 h
[6] = wild type E. coli NCM3722, growth: C-lim chemostat, doubling time 6 h
[7] = wild type E. coli NCM3722, growth: C-lim chemostat, doubling time 12 h
[8] = wild type E. coli NCM3722, growth: N-lim chemostat, doubling time 6 h
[9] = wild type E. coli NCM3722, growth: N-lim chemostat, doubling time 12 h
[10] = wild type E. coli NCM3722, growth: P-lim chemostat, doubling time 6 h
[11] = wild type E. coli NCM3722, growth: P-lim chemostat, doubling time 12 h
[12] = wild type E. coli NCM3722, growth: C-lim chemostat, doubling time 3 h

| Sequence | total protein half-life in vivo [1] | total protein half-life in vivo [2] | total protein half-life in vivo [3] | total protein half-life in vivo [4] | total protein half-life in vivo [5] | total protein half-life in vivo [6] | total protein half-life in vivo [7] | total protein half-life in vivo [8] | total protein half-life in vivo [9] | total protein half-life in vivo [10] | total protein half-life in vivo [11] | total protein half-life in vivo [12] |
| --- | --- | --- | --- | --- | --- | --- | --- | --- | --- | --- | --- | --- |
| MAITGIFFGSDTGNTENIAKMIQKQLGKDVADVHDIAKSSKEDLEAYDILLLGIPTWYYGEAQCDWDDFFPTLEEIDFNGKLVALFGCGDQEDYAEYFCDALGTIRDIIEPRGATIVGHWPTAGYHFEASKGLADDDHFVGLAIDEDRQPELTAERVEKWVKQISEELHLDEILNA | 5.32 ± 1.2 h | 5.07 ± 0.65 h | 4.45 ± 0.27 h | 4.59 ± 0.44 h | 4.64 ± 0.75 h | 5.31 ± 0.73 h | 7.02 ± 3 h | 4.71 ± 0.14 h | 8.16 ± 0.92 h | 6.33 ± 0.46 h | – | – |
| MAKEDNIEMQGTVLETLPNTMFRVELENGHVVTAHISGKMRKNYIRILTGDKVTVELTPYDLSKGRIVFRSR | 5.28 ± 0.3 h | 4.92 ± 1.1 h | 4.49 ± 0.57 h | 4.94 ± 0.23 h | 5.4 ± 0.28 h | 5.34 ± 0.62 h | 8.41 ± 0.61 h | 4.58 h | 8.98 ± 0.12 h | 4.93 ± 1.6 h | 9.85 ± 0.75 h | – |
| MAKEFGRPQRVAQEMQKEIALILQREIKDPRLGMMTTVSGVEMSRDLAYAKVYVTFLNDKDEDAVKAGIKALQEASGFIRSLLGKAMRLRIVPELTFFYDNSLVEGMRMSNLVTSVVKHDEERRVNPDDSKED [P0A7G2] | – | 4.7644 ± 0.0036 h | 4.43 ± 0.063 h | 5.76 ± 0.31 h | 4.56 ± 0.23 h | 5.38 ± 0.84 h | 10.3 ± 0.93 h | 4.6 ± 0.22 h | 7.76 ± 0.5 h | 4.66 ± 0.12 h | 8.771 ± 0.013 h | 2.87 ± 0.079 h |
| MAKEKKRGFFSWLGFGQKEQTPEKETEVQNEQPVVEEIVQAQEPVKASEQAVEEQPQAHTEAEAETFAADVVEVTEQVAESEKAQPEAEVVAQPEPVVEETPEPVAIEREELPLPEDVNAEAVSPEEWQAEAETVEIVEAAEEEAAKEEITDEELETALAAEAAEEAVMVVPPAEEEQPVEEIAQEQEKPTKEGFFARLKRSLLKTKENLGSGFISLFRGKKIDDDLFEELEEQLLIADVGVETTRKIITNLTEGASRKQLRDAEALYGLLKEEMGEILAKVDEPLNVEGKAPFVILMVGVNGVGKTTTIGKLARQFEQQGKSVMLAAGDTFRAAAVEQLQVWGQRNNIPVIAQHTGADSASVIFDAIQAAKARNIDVLIADTAGRLQNKSHLMEELKKIVRVMKKLDVEAPHEVMLTIDASTGQNAVSQAKLFHEAVGLTGITLTKLDGTAKGGVIFSVADQFGIPIRYIGVGERIEDLRPFKADDFIEALFARED | 5.949 ± 0.013 h | 6.16 ± 0.62 h | 6.29 ± 0.82 h | 5.53 ± 0.3 h | 5.61 ± 0.034 h | 5.835 ± 0.012 h | 11.1 ± 1.8 h | 5.94 ± 0.28 h | 10.7 ± 0.25 h | 5.64 ± 0.21 h | 11.92 ± 0.0035 h | 3.038 ± 0.019 h |
| MAKERALTLEALRVMDAIDRRGSFAAAADELGRVPSALSYTMQKLEEELDVVLFDRSGHRTKFTNVGRMLLERGRVLLEAADKLTTDAEALARGWETHLTIVTEALVPTPAFFPLIDKLAAKANTQLAIITEVLAGAWERLEQGRADIVIAPDMHFRSSSEINSRKLYTLMNVYVAAPDHPIHQEPEPLSEVTRVKYRGIAVADTARERPVLTVQLLDKQPRLTVSTIEDKRQALLAGLGVATMPYPMVEKDIAEGRLRVVSPESTSEIDIIMAWRRDSMGEAKSWCLREIPKLFNGK | 5.43 ± 0.44 h | 5.71 ± 0.84 h | 5.26 ± 0.14 h | 5.85 ± 0.25 h | 5.34 ± 0.25 h | 5.658 ± 0.043 h | 11.2 ± 0.74 h | 5.54 ± 0.4 h | 10.9 ± 0.25 h | 6.09 ± 0.32 h | 11.5 ± 0.97 h | 3.01 ± 0.2 h |
| MAKIKGQVKWFNESKGFGFITPADGSKDVFVHFSAIQGNGFKTLAEGQNVEFEIQDGQKGPAAVNVTAI [P0A9Y6] | 4.07 ± 0.35 h | 3.26 ± 0.19 h | 2.88 ± 0.095 h | 3.98 ± 0.54 h | 2.65 ± 0.03 h | 3.23 ± 0.29 h | 5.61 ± 1.2 h | 2.83 ± 0.21 h | 3.96 ± 0.13 h | 2.94 ± 0.28 h | 5 ± 1.2 h | 2.24 ± 0.71 h |
| MAKNIPFKLILEKAKDYQADMTRFLRDMVAIPSESCDEKRVVHRIKEEMEKVGFDKVEIDPMGNVLGYIGHGPRLVAMDAHIDTVGIGNIKNWDFDPYEGMETDELIGGRGTSDQEGGMASMVYAGKIIKDLGLEDEYTLLVTGTVQEEDCDGLCWQYIIEQSGIRPEFVVSTEPTDCQVYRGQRGRMEIRIDVQGVSCHGSAPERGDNAIFKMGPILGELQELSQRLGYDEFLGKGTLTVSEIFFTSPSRCAVADSCAVSIDRRLTWGETWEGALDEIRALPAVQKANAVVSMYNYDRPSWTGLVYPTECYFPTWKVEEDHFTVKALVNAYEGLFGKAPVVDKWTFSTNGVSIMGRHGIPVIGFGPGKEPEAHAPNEKTWKSHLVTCAAMYAAIPLSWLATE | – | – | 3.34 ± 0.23 h | > 8 h | 3.6 h | 5.23 ± 1.1 h | 8.78 ± 0.98 h | 3.7 ± 0.69 h | 6.26 ± 0.46 h | 5.23 h | 9.14 ± 1.7 h | 2.93 ± 0.037 h |
| MAKNRSRRLRKKMHIDEFQELGFSVAWRFPEGTSEEQIDKTVDDFINEVIEPNKLAFDGSGYLAWEGLICMQEIGKCTEEHQAIVRKWLEERKLDEVRTSELFDVWWD | 5.96 ± 0.18 h | 6.44 ± 1.1 h | 6.42 ± 0.59 h | 6.34 ± 0.93 h | 5.56 ± 0.31 h | 5.41 ± 0.22 h | 9.8 ± 0.27 h | 5.26 h | 12.6 ± 0.72 h | 5.22 ± 0.22 h | 11.7 ± 0.92 h | 3.43 ± 0.076 h |
